# Measured values published in publication PMC11912836, “Msh2-Msh3 DNA-binding is not sufficient to promote trinucleotide repeat expansions in Saccharomyces cerevisiae”.
# B1: Homoduplex (LS1/LS2-Bio) (dsDNA)
# DNA 1: CACGCTACCGAATTCTGACTTGCTAGGCATCTTTGCCCACGTTGACCC
# DNA 2: GGGTCAACGTGGGCAAAGATGTCCTAGCAAGTCAGAATTCGGTAGCGTG
# B2: +8 loop, (GT)4 (LS8/LS2-Bio) (dsDNA)
# DNA 1: CACGCTACCGAATTCTGACTTGCTAGGTGTGTGTGACATCTTTGCCCACGTTGACCC
# DNA 2: B1 DNA 2
# B3: (CAG)10 (LS-CAG/LS2-Bio) (dsDNA)
# DNA 1: CACGCTACCGAATTCTGACTTGCTAGCAGCAGCAGCAGCAGCAGCAGCAGCAGCAGGACATCTTTGCCCACGTTGACCC
# DNA 2: B1 DNA 2
# B4: (CTG)10 (LS-CTG/LS2-Bio) (dsDNA)
# DNA 1: CACGCTACCGAATTCTGACTTGCTAGCTGCTGCTGCTGCTGCTGCTGCTGCTGCTGGACATCTTTGCCCACGTTGACCC
# DNA 2: B1 DNA 2
# Tests used:
# [1] = target: Msh2-msh6(3MBD) (Saccharomyces cerevisiae) (UniProt P25847+Q03834); experiment: BLI; settings: BLI: 25 mM Tris-HCl pH 7.5, 1 mM EDTA, 100 mM NaCl, 0.1 mg/mL BSA, 1 mM DTT, 0.05% Tween-20; DNA 7.5 nM (30 nM for Msh2-Msh6); temperature not stated; no …
# Msh2-Msh6 = Msh2-Msh6 (Saccharomyces cerevisiae, UniProt P25847;Q03834 1-964;1-1242); experiment: BLI; BLI: 25 mM Tris-HCl pH 7.5, 1 mM EDTA, 100 mM NaCl, 0.1 mg/mL BSA, 1 mM DTT, 0.05% Tween-20; DNA 7.5 nM (30 nM for Msh2-Msh6); temperature not stated; no nucleotide or Mg2+ listed; settings: protein: recombinant, copies: 1;1, label: 5' biotin on bottom strand
# Msh2-Msh3 = Msh2-Msh3 (Saccharomyces cerevisiae, UniProt P25847;P25336 1-964;1-1018); experiment: as above; settings: protein: recombinant, copies: 1;1, label: 5' biotin on bottom strand
# [2] = as printed, bottom strand has 1 extra nt (T opposite missing A after CTAGG of top; possible misprint), described as homoduplex
# [3] = blunt, 8-nt extrahelical loop in top strand
# [4] = blunt, extrahelical (CAG)10 quasi-hairpin in top strand
# [5] = blunt, extrahelical (CTG)10 quasi-hairpin in top strand
# Chain of Msh2-Msh3 (P25847 whole entry, chain 1 of 2): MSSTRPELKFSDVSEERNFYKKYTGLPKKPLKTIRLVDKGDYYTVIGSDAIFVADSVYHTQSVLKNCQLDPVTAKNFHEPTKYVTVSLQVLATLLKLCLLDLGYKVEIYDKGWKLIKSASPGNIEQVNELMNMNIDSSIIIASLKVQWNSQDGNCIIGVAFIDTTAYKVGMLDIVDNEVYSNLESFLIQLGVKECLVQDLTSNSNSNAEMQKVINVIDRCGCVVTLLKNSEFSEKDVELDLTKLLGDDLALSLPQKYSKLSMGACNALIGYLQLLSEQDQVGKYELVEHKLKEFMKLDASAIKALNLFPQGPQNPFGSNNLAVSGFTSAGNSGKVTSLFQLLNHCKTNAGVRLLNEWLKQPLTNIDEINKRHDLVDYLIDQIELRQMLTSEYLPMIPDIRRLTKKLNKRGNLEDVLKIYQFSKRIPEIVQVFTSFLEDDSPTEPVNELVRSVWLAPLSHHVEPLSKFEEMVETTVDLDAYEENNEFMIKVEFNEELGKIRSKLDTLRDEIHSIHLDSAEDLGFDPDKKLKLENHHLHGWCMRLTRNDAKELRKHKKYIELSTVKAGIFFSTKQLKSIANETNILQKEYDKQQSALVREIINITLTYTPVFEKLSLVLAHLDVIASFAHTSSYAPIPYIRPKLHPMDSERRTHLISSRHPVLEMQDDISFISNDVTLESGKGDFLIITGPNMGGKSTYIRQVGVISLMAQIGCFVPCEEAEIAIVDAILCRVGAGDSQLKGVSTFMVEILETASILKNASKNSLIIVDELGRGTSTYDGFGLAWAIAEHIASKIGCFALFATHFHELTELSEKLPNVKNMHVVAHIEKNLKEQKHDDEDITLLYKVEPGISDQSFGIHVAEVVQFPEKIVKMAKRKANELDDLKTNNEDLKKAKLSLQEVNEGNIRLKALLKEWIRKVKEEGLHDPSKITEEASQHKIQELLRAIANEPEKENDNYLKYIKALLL
# Chain of Msh2-Msh3 (P25336 whole entry, chain 2 of 2): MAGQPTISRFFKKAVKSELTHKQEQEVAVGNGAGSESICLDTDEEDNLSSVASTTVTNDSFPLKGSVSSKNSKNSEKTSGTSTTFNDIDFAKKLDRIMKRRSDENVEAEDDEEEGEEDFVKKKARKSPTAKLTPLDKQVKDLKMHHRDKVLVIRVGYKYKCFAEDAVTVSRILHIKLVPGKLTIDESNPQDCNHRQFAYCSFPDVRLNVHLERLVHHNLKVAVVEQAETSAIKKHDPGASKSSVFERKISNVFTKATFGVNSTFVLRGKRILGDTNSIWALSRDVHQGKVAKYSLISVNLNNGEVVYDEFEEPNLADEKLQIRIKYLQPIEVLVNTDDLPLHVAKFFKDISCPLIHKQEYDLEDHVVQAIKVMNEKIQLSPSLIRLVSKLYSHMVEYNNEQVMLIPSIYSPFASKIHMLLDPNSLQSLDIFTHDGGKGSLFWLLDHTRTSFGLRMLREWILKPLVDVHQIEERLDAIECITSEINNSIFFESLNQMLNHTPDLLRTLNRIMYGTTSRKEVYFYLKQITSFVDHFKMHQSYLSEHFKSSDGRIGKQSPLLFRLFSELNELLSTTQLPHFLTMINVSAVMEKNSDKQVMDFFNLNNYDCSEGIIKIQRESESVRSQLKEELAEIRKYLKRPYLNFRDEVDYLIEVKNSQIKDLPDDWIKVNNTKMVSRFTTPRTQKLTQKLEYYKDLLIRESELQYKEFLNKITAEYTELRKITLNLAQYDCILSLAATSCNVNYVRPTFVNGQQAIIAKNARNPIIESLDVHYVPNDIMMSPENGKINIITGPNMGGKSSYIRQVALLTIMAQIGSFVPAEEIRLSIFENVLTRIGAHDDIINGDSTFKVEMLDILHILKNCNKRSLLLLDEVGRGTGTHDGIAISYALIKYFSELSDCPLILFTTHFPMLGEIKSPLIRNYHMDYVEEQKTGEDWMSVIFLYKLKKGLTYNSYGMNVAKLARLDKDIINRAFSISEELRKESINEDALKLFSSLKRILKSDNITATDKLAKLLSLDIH
# Chain of Msh2-msh6(3MBD) (Saccharomyces cerevisiae) (P25847 whole entry, chain 1 of 2): as the sequence (P25847 whole entry, chain 1 of 2) above
# Chain of Msh2-msh6(3MBD) (Saccharomyces cerevisiae) (Q03834 whole entry, chain 2 of 2): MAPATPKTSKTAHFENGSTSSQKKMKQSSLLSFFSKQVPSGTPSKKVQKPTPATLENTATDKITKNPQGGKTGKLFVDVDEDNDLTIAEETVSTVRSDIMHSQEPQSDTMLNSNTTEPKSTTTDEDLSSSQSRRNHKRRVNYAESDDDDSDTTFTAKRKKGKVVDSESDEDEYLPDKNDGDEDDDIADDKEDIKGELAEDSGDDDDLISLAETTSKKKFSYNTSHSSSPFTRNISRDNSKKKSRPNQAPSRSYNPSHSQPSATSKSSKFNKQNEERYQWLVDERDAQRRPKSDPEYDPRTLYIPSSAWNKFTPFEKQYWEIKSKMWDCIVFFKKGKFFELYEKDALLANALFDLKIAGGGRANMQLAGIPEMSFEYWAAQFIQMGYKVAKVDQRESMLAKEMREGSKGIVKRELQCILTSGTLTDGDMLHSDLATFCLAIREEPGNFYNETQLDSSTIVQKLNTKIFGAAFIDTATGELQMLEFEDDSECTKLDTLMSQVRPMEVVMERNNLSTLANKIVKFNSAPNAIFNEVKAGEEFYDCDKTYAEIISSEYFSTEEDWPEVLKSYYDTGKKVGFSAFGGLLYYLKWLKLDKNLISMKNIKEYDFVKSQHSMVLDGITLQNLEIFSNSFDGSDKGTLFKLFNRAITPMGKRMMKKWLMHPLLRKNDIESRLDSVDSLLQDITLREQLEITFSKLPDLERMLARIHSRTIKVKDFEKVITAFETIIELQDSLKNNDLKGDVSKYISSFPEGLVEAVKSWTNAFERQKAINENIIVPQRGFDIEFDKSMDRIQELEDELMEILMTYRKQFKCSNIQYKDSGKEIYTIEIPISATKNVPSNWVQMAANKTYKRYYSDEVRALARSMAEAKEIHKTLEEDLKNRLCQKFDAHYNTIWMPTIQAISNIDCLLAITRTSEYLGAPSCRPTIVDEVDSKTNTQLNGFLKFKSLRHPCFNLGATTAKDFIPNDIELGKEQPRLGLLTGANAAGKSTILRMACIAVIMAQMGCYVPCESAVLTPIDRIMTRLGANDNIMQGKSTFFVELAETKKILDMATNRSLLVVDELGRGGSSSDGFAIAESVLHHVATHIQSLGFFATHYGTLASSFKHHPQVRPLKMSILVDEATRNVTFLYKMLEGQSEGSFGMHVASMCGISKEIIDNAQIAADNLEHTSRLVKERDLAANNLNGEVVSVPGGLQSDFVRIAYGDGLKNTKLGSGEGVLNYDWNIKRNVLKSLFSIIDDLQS
# Chain of Msh2-Msh6 (P25847 whole entry, chain 1 of 2): as the sequence (P25847 whole entry, chain 1 of 2) above
# Chain of Msh2-Msh6 (Q03834 whole entry, chain 2 of 2): as the sequence (Q03834 whole entry, chain 2 of 2) above
molecule,measurement,setting,value
CACGCTACCGAATTCTGACTTGCTAGGCATCTTTGCCCACGTTGACCC / GGGTCAACGTGGGCAAAGATGTCCTAGCAAGTCAGAATTCGGTAGCGTG [Homoduplex (LS1/LS2-Bio)],Kd,[1],7.16 nM
CACGCTACCGAATTCTGACTTGCTAGCAGCAGCAGCAGCAGCAGCAGCAGCAGCAGGACATCTTTGCCCACGTTGACCC / GGGTCAACGTGGGCAAAGATGTCCTAGCAAGTCAGAATTCGGTAGCGTG [(CAG)10 (LS-CAG/LS2-Bio)],Kd,[1],2.37 nM
CACGCTACCGAATTCTGACTTGCTAGCTGCTGCTGCTGCTGCTGCTGCTGCTGCTGGACATCTTTGCCCACGTTGACCC / GGGTCAACGTGGGCAAAGATGTCCTAGCAAGTCAGAATTCGGTAGCGTG [(CTG)10 (LS-CTG/LS2-Bio)],Kd,[1],1.05 nM
"CACGCTACCGAATTCTGACTTGCTAGGTGTGTGTGACATCTTTGCCCACGTTGACCC / GGGTCAACGTGGGCAAAGATGTCCTAGCAAGTCAGAATTCGGTAGCGTG [+8 loop, (GT)4 (LS8/LS2-Bio)]",Kd,[1],0.872 nM
B1,Kd,Msh2-Msh6; [2],21 nM
same,Kd,Msh2-Msh3; [2],9.22 nM
B2,Kd,Msh2-Msh6; [3],8.67 nM
same,Kd,Msh2-Msh3; [3],2.62 nM
B3,Kd,Msh2-Msh6; [4],2.73 nM
same,Kd,Msh2-Msh3; [4],1.38 nM
B4,Kd,Msh2-Msh6; [5],3.07 nM
same,Kd,Msh2-Msh3; [5],2.25 nM
